These results are taken from patent publication US20240150465A1 (Chugai, published 2024).

Test [1] addresses T1, human DLL3 (delta-like protein 3 isoform 1 precursor) expressed on Ba/F3 cells (human, UniProt Q9NYJ7 27-618).
T1 construct: Full-length cDNA stably transfected into mouse Ba/F3 cells; also called human DLL3 expressing Ba/F3
T1 sequence: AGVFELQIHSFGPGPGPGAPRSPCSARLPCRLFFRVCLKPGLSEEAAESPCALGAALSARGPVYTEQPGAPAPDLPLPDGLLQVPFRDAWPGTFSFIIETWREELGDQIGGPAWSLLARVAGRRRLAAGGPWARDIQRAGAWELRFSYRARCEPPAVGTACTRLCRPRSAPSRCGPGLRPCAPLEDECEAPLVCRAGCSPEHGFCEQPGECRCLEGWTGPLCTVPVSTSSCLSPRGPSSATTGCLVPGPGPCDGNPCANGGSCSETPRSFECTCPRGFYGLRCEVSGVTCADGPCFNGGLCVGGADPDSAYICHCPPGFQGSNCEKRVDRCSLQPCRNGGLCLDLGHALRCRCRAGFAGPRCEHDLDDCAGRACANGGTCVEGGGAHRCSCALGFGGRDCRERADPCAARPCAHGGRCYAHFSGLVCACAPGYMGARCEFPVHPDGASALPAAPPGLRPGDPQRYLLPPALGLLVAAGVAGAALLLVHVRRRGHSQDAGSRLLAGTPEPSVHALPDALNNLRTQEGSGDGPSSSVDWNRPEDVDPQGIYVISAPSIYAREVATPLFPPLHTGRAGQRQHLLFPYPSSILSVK
Nature of the test: cell ELISA, B-cell culture supernatants on immobilized hDLL3/BaF_H3 cells. As to the method:
ELISA screening was conducted to test specificity of antibodies in B-cell culture supernatants. Human DLL3 expressing Ba/F3 (hDLL3/BaF_H3 established in Example 2, 2.5×10⁴ cells) were immobilized onto a Nunc MaxiSorp 384-well plate (Sigma-Aldrich) which was pre-coated with BSA (Sigma-Aldrich) and SUNBRIGHT (registered trademark) OE-080CS as Biocompatible Anchor for cell Membrane (YUKA SANGYO). Immobilized cells were incubated with 20 microliters (micro L) of B-cell culture supernatants for 1 hour. The supernatants were aspirated and the cells were washed with HEPES buffer (0.02 M HEPES, 5 mM KCl, 4 mM NaHCO₃, 138 mM NaCl, 2 mM CaCl₂, 5 mM Glucose, 0.4 mM KH₂PO₄, 0.34 mM Na₂HPO₄° and 0.1% BSA). After washing, goat anti-rabbit IgG polyclonal antibody HRP conjugate (BETHYL, A120-111P) was added. The cells were further incubated on ice for 1 hour and washed. Then, ABTS Microwell Peroxidase Substrate (Kirkegaard & Perry Laboratories) was added and OD405 was analyzed with […]ax 384 (Molecular Devices).
Background: In an ELISA, binding on a coated surface is turned into a signal by an enzyme label.

A further test deals with T2, del4.
T2 construct: also called truncated human DLL3 ECD variant with Flag-tag on C-terminus
T2 chain: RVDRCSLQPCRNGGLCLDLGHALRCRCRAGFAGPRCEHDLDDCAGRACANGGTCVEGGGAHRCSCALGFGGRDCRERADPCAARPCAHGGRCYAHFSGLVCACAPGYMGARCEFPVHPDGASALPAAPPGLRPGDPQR
The test can be described thus: ELISA with the human DLL3 ECD fragment proteins del0 to del6, OD405. How it is done:
(§1) Nunc MaxiSorp 384-well plates (Sigma-Aldrich) were coated with each of the human DLL3 ECD fragment proteins del0 to del6, and blocked with 20% Blocking One (NACALAI TESQUE). Blocking buffer was removed and recombinant anti-DLL3 antibodies were incubated with the immobilized proteins for 1 hour at room temperature and washed with HEPES buffer (0.05% Tween20, HEPES). Monoclonal ANTI-FLAG M2-Peroxidase, Clone M2 (Sigma-Aldrich) was then added and incubated for 1 hour at room temperature and washed. Then, ABTS Microwell Peroxidase Substrate (Kirkegaard & Perry Laboratories) was added and OD405 was analyzed with […]ax 384 (Molecular Devices).

For another test, the target named is T3, del0.
T3 construct: also called human DLL3 ECD with Flag-tag on C-terminus
T3 chain: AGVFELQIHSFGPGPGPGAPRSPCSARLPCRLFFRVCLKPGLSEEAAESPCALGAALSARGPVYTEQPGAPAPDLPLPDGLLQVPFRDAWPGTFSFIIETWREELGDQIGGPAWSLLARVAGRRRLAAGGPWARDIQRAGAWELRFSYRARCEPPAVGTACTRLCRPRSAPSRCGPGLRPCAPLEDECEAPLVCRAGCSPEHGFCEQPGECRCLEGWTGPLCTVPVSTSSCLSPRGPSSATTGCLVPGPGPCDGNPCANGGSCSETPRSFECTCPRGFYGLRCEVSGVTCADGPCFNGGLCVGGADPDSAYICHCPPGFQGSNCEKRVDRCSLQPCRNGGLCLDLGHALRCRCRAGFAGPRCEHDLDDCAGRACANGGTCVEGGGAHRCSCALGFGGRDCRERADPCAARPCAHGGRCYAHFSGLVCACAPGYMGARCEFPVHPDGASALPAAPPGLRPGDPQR
Described as above. As to the method:
as §1

A further test addresses T4, del2.
T4 construct: also called truncated human DLL3 ECD variant with Flag-tag on C-terminus
T4 chain: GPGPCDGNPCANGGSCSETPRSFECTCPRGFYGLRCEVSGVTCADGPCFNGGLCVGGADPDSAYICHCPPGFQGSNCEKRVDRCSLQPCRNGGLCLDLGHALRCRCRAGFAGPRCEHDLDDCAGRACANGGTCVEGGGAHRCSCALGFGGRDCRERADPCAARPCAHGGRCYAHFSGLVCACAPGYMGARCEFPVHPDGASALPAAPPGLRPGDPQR
Described as above. How it is done: as §1

The next test addresses T5, del3.
T5 construct: also called truncated human DLL3 ECD variant with Flag-tag on C-terminus
T5 chain: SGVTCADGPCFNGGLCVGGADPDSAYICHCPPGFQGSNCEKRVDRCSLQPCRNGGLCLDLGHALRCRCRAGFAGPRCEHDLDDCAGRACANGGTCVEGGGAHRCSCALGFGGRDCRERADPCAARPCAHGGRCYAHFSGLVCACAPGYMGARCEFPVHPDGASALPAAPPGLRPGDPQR
The description is as above. How it is done:
as §1

For the next test, the target named is T6, del6.
T6 construct: also called truncated human DLL3 ECD variant with Flag-tag on C-terminus
T6 chain: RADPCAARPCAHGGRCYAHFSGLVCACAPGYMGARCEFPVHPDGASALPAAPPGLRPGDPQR
The test is described as above. As to the method:
as §1

Another test deals with T7, del5.
T7 construct: also called truncated human DLL3 ECD variant with Flag-tag on C-terminus
T7 chain: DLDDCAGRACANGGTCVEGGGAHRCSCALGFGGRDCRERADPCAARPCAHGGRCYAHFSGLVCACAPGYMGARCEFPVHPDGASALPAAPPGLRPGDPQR
Described as above. As to the method: as §1

B1: DLA0379 (antibody, human IgG1, V domains shown)
VH: QSLEESGGRLVTPGTPLTLTCTASGFSLNTYHMIWVRQAPGKGLEWIGIVDSGGSTYYASWAKGRFTISRTSTTVDLKATSLTTEDTATYFCARGGSWDGFNIWGPGTLVTVSS
VL: DVVMTQTPSSVSAAVGGTVTINCQSSQSVYNSDFLAWYQQKPGQPPKLLIYAASTLASGVPSRFKGSGSGTQFTLTISDLECDDAATYYCQGTYEDVGWFNDFGGGTEVVVK
notes: Rabbit B-cell clone, screened as B-cell culture supernatant
B1: the binding result in test [1] is “binds”; in the test with del4 it was “no binding”; in the test with del0, “binds”; with del2, “no binding”; with del3, “no binding”; with del6, “no binding”. Moreover, the binding result in the test with del5 is “no binding”.
